1 molecule from patent US12410253B2, “Compositions comprising anti-NRP2 antibodies” (aTyr Pharma, Inc., priority 2019, dated 2025) can be followed below.

The subject of data set [1] is neo-lymphangiogenesis of the cornea. Briefly: Corneal alkali-burn injury model of neovascularization (LYVE-1 staining). Type of data set: in vivo, mouse. The following applies: IP on Day 0, 3, 7 and 10; Day 14; compared to IgG control; p=0.07. The protocol: Study Design & Treatment Regimen. The study consisted of 40 female C57BL/6 mice separated into four groups. Prior to study, animals were randomized into four groups, 10 mice per group. On Day 0, neovascularization (NV) of the cornea was induced from alkali-burn injury in the eyes of animals under anesthesia. Animals were treated intraperitoneally with control IgG (Group 1), aNRP2-28 (Group 2) and Bevacizumab (Group 3) on post-injury Day 0, 3, 7 and 10. During the in-life phase, animals were monitored with daily clinical observations and weekly body weights. Additionally, ocular assessments of injured eyes were scored and photos taken on post-injury Day 7 and Day 14. All animals were euthanized on Day 14. Injured eyes from all animals were removed and dissected. Whole-mounted corneas were fixed, stained with LYVE-1, and analyzed immunohistochemically to examine the efficacy of Test Articles.

For the next data set, the system named is BT549. Nature of the data set: 3D soft agar colony formation assay, BT549. The class given is cell-based, human. Here is the method:
Anchorage-independent growth is the ability of transformed cells to grow independently of a solid surface, and is a hallmark of carcinogenesis. The soft agar colony formation assay is a well-established method for characterizing this capability in vitro (J Vis Exp. 2014; (92): 51998). Human triple negative breast cancer (TNBC) cell lines MDA-MB-231 (HTB-26™) and BT549 (HTB122™) were obtained from ATCC and employed in this assay.
MDA-MB-231 was cultured in 1×RPMI media containing 10% FBS and 1% P/S. BT549 was cultured in 1×RPMI media containing 10% FBS, 0.023 U/mL insulin and 1% P/S. Cells were recovered and expanded from frozen stocks for 2-3 passages. The NRP2-high population was sorted out on FACS equipment following cell surface staining by a fluorophore-conjugated anti-NRP2 antibody. […] The chemo drug Cisplatin or 5-FU was added at a final concentration of IC30 or 1/2 IC30, based on a preliminary test that determined their inhibition curves on MDA-MB-231 cells, in combination with the antibodies a-NRP2-10v10 or its isotype control hIgG4 at 100 nM. […] After 6 or 9 days of treatment, the soft agar matrix was dissolved and the formed cell colonies were quantified using CyQuant dye diluted in PBS (provided in the Cell Biolab kit), which produced a fluorescence signal proportional to viable cells.

The target of data set [2] is T1, mouse NRP2 (Mus musculus, UniProt O35375).
T1 construct: host or cells: Expi293, transient transfection
T1 sequence (O35375 21-926 isoform O35375-4): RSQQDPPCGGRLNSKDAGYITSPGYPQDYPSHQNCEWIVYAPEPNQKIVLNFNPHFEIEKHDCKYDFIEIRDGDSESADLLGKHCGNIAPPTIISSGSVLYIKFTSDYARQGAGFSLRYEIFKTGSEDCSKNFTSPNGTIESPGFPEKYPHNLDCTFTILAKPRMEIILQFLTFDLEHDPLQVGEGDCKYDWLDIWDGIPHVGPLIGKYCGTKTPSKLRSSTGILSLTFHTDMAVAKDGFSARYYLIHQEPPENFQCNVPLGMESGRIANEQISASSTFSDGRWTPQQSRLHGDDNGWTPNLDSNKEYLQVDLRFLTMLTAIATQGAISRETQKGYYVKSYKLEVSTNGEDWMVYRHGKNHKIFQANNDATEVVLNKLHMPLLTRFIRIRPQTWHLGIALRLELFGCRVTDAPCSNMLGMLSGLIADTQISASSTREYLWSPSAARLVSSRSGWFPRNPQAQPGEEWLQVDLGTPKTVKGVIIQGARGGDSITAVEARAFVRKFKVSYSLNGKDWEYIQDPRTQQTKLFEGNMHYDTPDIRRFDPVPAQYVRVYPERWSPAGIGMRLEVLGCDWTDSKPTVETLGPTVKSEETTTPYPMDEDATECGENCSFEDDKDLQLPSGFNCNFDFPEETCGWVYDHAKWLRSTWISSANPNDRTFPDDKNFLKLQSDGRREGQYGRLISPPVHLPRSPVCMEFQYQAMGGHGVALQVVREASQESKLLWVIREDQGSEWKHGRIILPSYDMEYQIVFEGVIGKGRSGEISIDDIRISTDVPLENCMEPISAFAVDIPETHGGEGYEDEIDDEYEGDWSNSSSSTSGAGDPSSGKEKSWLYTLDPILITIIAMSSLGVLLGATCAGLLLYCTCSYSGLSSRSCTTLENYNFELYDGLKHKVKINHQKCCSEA
Briefly: Epitope mapping: FACS staining of Expi293 cells expressing mouse NRP2 and b1 domain mutants. The class given is binding. The protocol: (§1) Human NRP2a (version 2; see Table N1) and mouse NRP2v2 cDNAs were obtained from Origene. […] Human and mouse NRP2, expression vectors, along with expression vectors encoding all 6 mutants were transfected into Expi293 cells at 1 million cells/mL, by standard techniques. Approximately 40 hours post transfection cells were co-stained with aNRP2-10v10, and a species agnostic anti-NRP2 a1 specific binding antibody.

Data set [3] concerns mouse NRP2. The description is as above. Type of data set: binding. The following applies: MFI staining, antibody 10 nM, mutations made in isolation. Here is the method:
as §1

The next data set relates to A549 cells. Briefly: A549 NSCLC xenograft in Nu/J mice, combination with 5-FU. The class given is in vivo. The following applies: for tumor growth in combination with 5-FU: 12.5 mg/kg IP BIW plus 5-FU 2.5 mg/kg TIW from day 16, significant on day 51 vs control IgG/5-FU. The protocol:
This study aimed to investigate the in vivo anticancer potential of aNRP2-10v10 in combination with fluorouracil (5-FU) in a human xenograft mouse model using A549 cells (NSCLC cancer model).
Treatment Regimen. Twenty (20) Nu/J mice (Jackson Laboratory, female, 6-8 wks old) were used in this study. […] The dosing regimen is shown in Table E7 below; In brief animals received injections of 12.5 mg/kg of aNRP2-10 or IgG control, which were administered to mice intraperitoneally twice a week according to the protocol below (Table E7). Both groups also received 2.5 mg/kg of 5-FU three times a week.
Human A549 cell line was purchased from ATCC.

Entries after “also recorded” stand apart in the source; their conditions may differ.

B1: aNRP2-10v10: humanized, affinity matured anti-NRP2 antibody, target domain b1, VEGF-C blocking; VH SEQ ID NO: 49, VL SEQ ID NO: 50 (antibody, V domains shown)
VH: EVQLVQSGAEVKKPGATVKISCKVSGFNIKDYYVHWVQQAPGKGLEWMGRIDVEDDETKYAPKFQGRVTITADTSTDTAYMELSSLRSEDTAVYYCATPIYGAREAWFAYWGQGTLVTVSS
VL: DIQMTQSPSSLSASVGDRVTITCTASSSVSSSYLHWYQQKPGKAPKLLIYRTSNLASGVPSRFSGSGSGTDFTLTISSLQPEDFATYYCHQYYRSPPTFGGGTKVEIK
modifications: Variable heavy chain region; Light chain variable region
On to B1, for which the “neo-lymphangiogenesis, % Lyve-1+ area of cornea” value in data set [1] is “clear trend towards reduced sprouting of lymphatic vessels”. The “colony formation, soft agar, antibody treatment alone (BT549)” value in the data set on BT549 (aNRP2-10v10 treatment alone) is reported as “no obvious effect”. In addition, the “colony formation by BT549 cells, soft agar” value with BT549 (antibody 100 nM in combination with Cisplatin or 5-FU at certain doses, compared to hIgG4 control) is listed as “significantly more pronounced”. In addition, the “binding to mouse NRP2 (wild type)” value in the data set with mouse NRP2 [2] is “binds specifically to the b1 domain of human NRP2, but not mouse NRP2; also recorded: does not cross react with mouse NRP2”. The “binding activity to mouse NRP2 with mutations F299Y, K354N, and L416S” value with mouse NRP2 [3] is on record as “restored partial, but incomplete, binding activity”. Moreover, the “binding to mouse NRP2 with mutations 1383V, M400A, and 1407V” value with mouse NRP2 [3] was “no improvement in binding”. Also, the figures for the “tumor growth in combination with 5-FU” value with A549 cells and in the data set on A549 cells (listed as aNRP2-10) were “enhances activity of the chemotherapeutic drug 5-FU” and “performed better than 5-FU with control IgG”, respectively. Also, the “toxicity by clinical observations and body weights” value in the data set on A549 cells (combination with 5-FU) is on record as “No obvious increased toxicity”.
